Laboratory results as given in patent publication US20180243437A1 (published 2018).

B1: human VEGFR-2/Fc (R&D Systems) (Fc fusion)
chain: ASVGLPSVSLDLPRLSIQKDILTIKANTTLQITCRGQRDLDWLWPNNQSGSEQRVEVTECSDGLFCKTLTIPKVIGNDTGAYKCFYRETDLASVIYVYVQDYRSPFIASVSDQHGVVYITENKNKTVVIPCLGSISNLNVSLCARYPEKRFVPDGNRISWDSKKGFTIPSYMISYAGMVFCEAKINDESYQSIMYIVVVVGYRIYDVVLSPSHGIELSVGEKLVLNCTARTELNVGIDFNWEYPSSKHQHKKLVNRDLKTQSGSEMKKFLSTLTIDGVTRSDQGLYTCAASSGLMTKKNSTFVRVHEKPFVAFGSGMESLVEATVGERVRIPAKYLGYPPPEIKWYKNGIPLESNHTIKAGHVLTIMEVSERDTGNYTVILTNPISKEKQSHVVSLVVYVPPQIGEKSLISPVDSYQYGTTQTLTCTVYAIPPPHHIHWYWQLEEECANEPSQAVSVTNPYPCEEWRSVEDFQGGNKIEVNKNQFALIEGKNKTVSTLVIQAANVSALYKCEAVNKVGRGERVISFHVTRGPEITLQPDMQPTEQESVSLWCTADRSTFENLTWYKLGPQPLPIHVGELPTPVCKNLDTLWKLNATMFSNSTNDILIMELKNASLQDQGDYVCLAQDRKTKKRHCVVRQLTVLERVAPTITGNLENQTTSIGESIEVSCTASGNPPPQIMWFKDNETLVEDSGIVLKDGNRNLTIRRVRKEDEGLYTCQACSVLGCAKVEAFFIIEGAQEKTNLE
notes: Bought protein; also called recombinant VEGFR2/Fc; not shown: Fc part; It is captured by goat anti-human IgG-Fc in the ELISA

Tests used:
[1] = biological target: T1, V21H4-DOS47 with 1.4 antibodies per urease (jack bean (Canavalia ensiformis), UniProt P07374 1-840, surface cysteines partly linked through BM(PEG)2 to C136 of V21H4; C136 linked through BM(PEG)2 to a urease cysteine); experiment: ELISA on recombinant VEGFR2/Fc, absorbance at 405 nm, V21H4-DOS47 at different antibody/urease ratios
T1 construct: The conjugation ratio is an average value from SDS-PAGE
T1 sequence (VHH, as listed by the source limits assumed, chain 1 of 2): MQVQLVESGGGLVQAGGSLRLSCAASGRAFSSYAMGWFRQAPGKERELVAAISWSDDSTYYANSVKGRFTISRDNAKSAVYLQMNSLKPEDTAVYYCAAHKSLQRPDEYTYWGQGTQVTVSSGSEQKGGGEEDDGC
T1 sequence (P07374 whole entry, chain 2 of 2): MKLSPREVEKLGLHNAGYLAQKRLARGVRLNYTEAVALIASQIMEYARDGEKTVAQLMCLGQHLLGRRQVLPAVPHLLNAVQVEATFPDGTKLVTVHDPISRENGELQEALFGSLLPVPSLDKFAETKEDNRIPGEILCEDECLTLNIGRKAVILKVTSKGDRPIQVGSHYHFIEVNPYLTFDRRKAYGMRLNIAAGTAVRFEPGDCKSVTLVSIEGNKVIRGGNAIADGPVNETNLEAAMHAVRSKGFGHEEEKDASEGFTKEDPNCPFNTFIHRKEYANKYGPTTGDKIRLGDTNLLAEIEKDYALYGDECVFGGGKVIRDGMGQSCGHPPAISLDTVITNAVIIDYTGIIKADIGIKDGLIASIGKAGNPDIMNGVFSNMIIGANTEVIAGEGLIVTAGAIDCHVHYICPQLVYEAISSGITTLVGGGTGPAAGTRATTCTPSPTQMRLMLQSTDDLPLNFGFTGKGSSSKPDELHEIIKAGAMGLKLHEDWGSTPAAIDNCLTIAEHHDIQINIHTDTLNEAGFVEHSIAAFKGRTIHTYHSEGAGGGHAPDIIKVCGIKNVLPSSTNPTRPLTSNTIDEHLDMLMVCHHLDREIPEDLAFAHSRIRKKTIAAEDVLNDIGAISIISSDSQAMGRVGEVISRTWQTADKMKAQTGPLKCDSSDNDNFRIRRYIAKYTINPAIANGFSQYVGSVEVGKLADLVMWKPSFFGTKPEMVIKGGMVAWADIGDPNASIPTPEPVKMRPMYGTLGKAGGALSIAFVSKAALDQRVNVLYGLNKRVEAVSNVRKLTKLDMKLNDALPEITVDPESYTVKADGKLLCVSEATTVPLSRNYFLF

[2] = biological target: T2, V21H4-DOS47 with 2.3 antibodies per urease (jack bean (Canavalia ensiformis), UniProt P07374 1-840, surface cysteines partly linked through BM(PEG)2 to C136 of V21H4; C136 linked through BM(PEG)2 to a urease cysteine); experiment: as above
T2 construct: The conjugation ratio is an average value from SDS-PAGE
T2 sequence (P07374 whole entry, chain 2 of 2): as above

[3] = biological target: T3, V21H4-DOS47 with 3.3 antibodies per urease (jack bean (Canavalia ensiformis), UniProt P07374 1-840, surface cysteines partly linked through BM(PEG)2 to C136 of V21H4; C136 linked through BM(PEG)2 to a urease cysteine); experiment: as above
T3 construct: The conjugation ratio is an average value from SDS-PAGE
T3 sequence (P07374 whole entry, chain 2 of 2): as above

[4] = biological target: T4, V21H4-DOS47 with 9.4 antibodies per urease (jack bean (Canavalia ensiformis), UniProt P07374 1-840, surface cysteines partly linked through BM(PEG)2 to C136 of V21H4; C136 linked through BM(PEG)2 to a urease cysteine); experiment: as above
T4 construct: The conjugation ratio is an average value from SDS-PAGE
T4 sequence (P07374 whole entry, chain 2 of 2): as above

[5] = biological target: V21H4-DOS47 (V21H4, SEQ ID NO:6, conjugated to jack bean urease through BM(PEG)2) (jack bean (Canavalia ensiformis), UniProt P07374 1-840, C824, C663, C59 and C207 partly linked through BM(PEG)2 to C136 of V21H4; C136 linked through BM(PEG)2 to a urease cysteine); experiment: ELISA on recombinant VEGFR2/Fc, absorbance at 405 nm
Sequence of V21H4-DOS47 (V21H4, SEQ ID NO:6, conjugated to jack bean urease through BM(PEG)2) (P07374 whole entry, chain 2 of 2): as above

[6] = biological target: V21H1-DOS47 (V21H1, SEQ ID NO:3, conjugated to jack bean urease through SM(PEG)2) (jack bean (Canavalia ensiformis), UniProt P07374 1-840, surface cysteines linked through SM(PEG)2 to the antibody; primary amines linked through SM(PEG)2 to urease cysteines; K66 in CDR2 was about 25% of the activated antibody); experiment: as above
Sequence of V21H1-DOS47 (V21H1, SEQ ID NO:3, conjugated to jack bean urease through SM(PEG)2) (VHH, as listed by the source limits assumed, chain 1 of 2): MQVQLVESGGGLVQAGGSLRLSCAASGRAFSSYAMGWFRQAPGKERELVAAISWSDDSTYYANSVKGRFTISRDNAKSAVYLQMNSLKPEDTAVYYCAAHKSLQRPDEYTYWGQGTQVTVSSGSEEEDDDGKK
Sequence of V21H1-DOS47 (V21H1, SEQ ID NO:3, conjugated to jack bean urease through SM(PEG)2) (P07374 whole entry, chain 2 of 2): as the sequence (P07374 whole entry, chain 2 of 2) above

[7] = biological target: T5, AB1-(SEQ ID NO:9) DOS47 antibody-urease conjugate (jack bean (Canavalia ensiformis), UniProt P07374 1-840, cross-linked to the antibody; sites not stated; chemically cross-linked to urease; cross-linker and sites not stated for this conjugate); experiment: ELISA on VEGFR2/Fc captured by anti-human IgG-Fc, conjugate detected with anti-urease [panel AB1-DOS47]
T5 construct: Antibody-enzyme conjugate; also called AB1-DOS47
T5 sequence (VHH, as listed by the source limits assumed, chain 1 of 2): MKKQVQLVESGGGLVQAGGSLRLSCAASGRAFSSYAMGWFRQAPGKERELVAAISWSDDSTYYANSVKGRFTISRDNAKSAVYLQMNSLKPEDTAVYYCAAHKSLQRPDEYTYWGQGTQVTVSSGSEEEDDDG
T5 sequence (P07374 whole entry, chain 2 of 2): as the sequence (P07374 whole entry, chain 2 of 2) above

[8] = biological target: T6, AB4-(SEQ ID NO:27) DOS47 antibody-urease conjugate (jack bean (Canavalia ensiformis), UniProt P07374 1-840, cross-linked to the antibody; sites not stated; chemically cross-linked to urease; cross-linker and sites not stated for this conjugate); experiment: ELISA on VEGFR2/Fc captured by anti-human IgG-Fc, conjugate detected with anti-urease [panel AB4-DOS47]
T6 construct: Antibody-enzyme conjugate; also called AB4-DOS47
T6 sequence (VHH, as listed by the source limits assumed, chain 1 of 2): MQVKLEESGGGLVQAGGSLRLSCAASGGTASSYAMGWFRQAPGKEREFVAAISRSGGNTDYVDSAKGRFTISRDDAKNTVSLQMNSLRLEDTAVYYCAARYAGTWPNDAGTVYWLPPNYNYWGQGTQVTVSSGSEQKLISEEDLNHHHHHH
T6 sequence (P07374 whole entry, chain 2 of 2): as the sequence (P07374 whole entry, chain 2 of 2) above

[9] = biological target: T7, AB2-(SEQ ID NO:13) DOS47 antibody-urease conjugate (jack bean (Canavalia ensiformis), UniProt P07374 1-840, cross-linked to the antibody; sites not stated; chemically cross-linked to urease; cross-linker and sites not stated for this conjugate); experiment: ELISA on VEGFR2/Fc captured by anti-human IgG-Fc, conjugate detected with anti-urease [panel AB2-DOS47]
T7 construct: Antibody-enzyme conjugate; also called AB2-DOS47
T7 sequence (VH, as listed by the source limits assumed, chain 1 of 2): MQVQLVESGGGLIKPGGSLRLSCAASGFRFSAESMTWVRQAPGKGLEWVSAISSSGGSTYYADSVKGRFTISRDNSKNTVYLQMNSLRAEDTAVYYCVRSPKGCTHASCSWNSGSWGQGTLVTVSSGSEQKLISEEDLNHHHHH
T7 sequence (P07374 whole entry, chain 2 of 2): as the sequence (P07374 whole entry, chain 2 of 2) above

[10] = biological target: B1; experiment: ELISA on recombinant VEGFR2/Fc, absorbance at 405 nm
[11] = biological target: T8, human VEGFR2 (KDR) expressed on 293/KDR cells (human, UniProt P35968 20-1356); experiment: flow cytometry on 293/KDR cells (FIG. 13B)
[12] = biological target: B1; experiment: ELISA, captured recombinant VEGFR2/Fc, biotin-V21H4 (FIG. 13A); antibody alone, not conjugate
[13] = biological target: T8, human VEGFR2 (KDR) expressed on 293/KDR …; experiment: flow cytometry on 293/KDR cells, S/N against biotin-isotype control
[14] = biological target: B1; experiment: SPR (Biacore 3000), immobilized human VEGFR-2/Fc; estimated from transformed data (FIG. 3)
[15] = biological target: T9, mouse VEGFR-2/Fc (R&D Systems) (mouse, UniProt P35918 20-762); experiment: SPR (Biacore 3000), immobilized mouse VEGFR-2/Fc
T9 construct: Bought protein; also called immobilized mouse VEGFR-2/Fc; not shown: Fc part, not described
T9 sequence (P35918 20-762 limits assumed): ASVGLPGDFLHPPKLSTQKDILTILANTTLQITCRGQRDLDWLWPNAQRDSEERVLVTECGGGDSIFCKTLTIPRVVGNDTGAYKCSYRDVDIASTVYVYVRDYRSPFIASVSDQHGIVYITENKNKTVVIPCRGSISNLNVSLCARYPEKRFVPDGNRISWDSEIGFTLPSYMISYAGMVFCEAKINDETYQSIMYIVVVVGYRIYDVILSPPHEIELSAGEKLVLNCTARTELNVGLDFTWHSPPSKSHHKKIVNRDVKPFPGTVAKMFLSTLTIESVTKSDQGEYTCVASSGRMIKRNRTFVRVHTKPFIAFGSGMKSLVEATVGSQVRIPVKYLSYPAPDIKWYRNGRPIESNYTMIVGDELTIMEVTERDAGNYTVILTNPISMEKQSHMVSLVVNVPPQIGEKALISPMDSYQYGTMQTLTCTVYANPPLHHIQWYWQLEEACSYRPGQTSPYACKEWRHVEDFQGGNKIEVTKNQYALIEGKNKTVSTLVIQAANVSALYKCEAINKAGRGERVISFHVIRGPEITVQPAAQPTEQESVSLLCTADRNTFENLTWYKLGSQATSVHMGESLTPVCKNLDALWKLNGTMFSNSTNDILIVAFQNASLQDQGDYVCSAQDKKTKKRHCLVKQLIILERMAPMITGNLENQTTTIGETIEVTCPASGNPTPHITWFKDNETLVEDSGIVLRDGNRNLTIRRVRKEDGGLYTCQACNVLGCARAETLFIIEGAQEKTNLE

[16] = biological target: B1; experiment: SPR (Biacore 3000), immobilized human VEGFR-2/Fc

## B1
[1]
  binding result: binds
[2]
  binding result: binds
[3]
  binding result: binds
[4]
  binding result: binds
[5]
  binding result: binds
[6]
  binding result: binds
[7]
  binding result: binds
[8]
  binding result: binds
[9]
  binding result: binds

B2: biotin-V21H4 (SEQ ID NO:6) (VHH)
VHH: QVQLVESGGGLVQAGGSLRLSCAASGRAFSSYAMGWFRQAPGKERELVAAISWSDDSTYYANSVKGRFTISRDNAKSAVYLQMNSLKPEDTAVYYCAAHKSLQRPDEYTYWGQGTQVTVSS
modifications: biotinylated (site not stated)
notes: The biotinylation method is not described; also called V21H4 antibody
[10]
  EC50 (read off the curve): ~2 nM
[11]
  EC50: 1.6 nM
[12]
  EC50: 1.8 nM
[13]
  EC50 (read off the curve): ~2 nM

B3: AB1 with linker 2 (SEQ ID NO:7) (VHH)
VHH: QVQLVESGGGLVQAGGSLRLSCAASGRAFSSYAMGWFRQAPGKERELVAAISWSDDSTYYANSVKGRFTISRDNAKSAVYLQMNSLKPEDTAVYYCAAHKSLQRPDEYTYWGQGTQVTVSS
notes: Llama single domain antibody expressed in E. coli BL21(DE3); The monomer fraction from Superdex 75 was used for SPR; also called VR2-21
[14]
  Kd: ~80 nM
  koff: < 0.01 s⁻¹
  kon: ~60000 M⁻¹ s⁻¹
[15]
  binding result: no binding (tested: 150˜200 nM)

B4: AB4 with linker 2 (SEQ ID NO:27) (VHH)
VHH: QVKLEESGGGLVQAGGSLRLSCAASGGTASSYAMGWFRQAPGKEREFVAAISRSGGNTDYVDSAKGRFTISRDDAKNTVSLQMNSLRLEDTAVYYCAARYAGTWPNDAGTVYWLPPNYNYWGQGTQVTVSS
notes: Llama single domain antibody expressed in E. coli; also called VR2-38
[15]
  binding result: no binding (tested: 150˜200 nM)
[16]
  Kd: 80 nM

B5: AB2 with linker 2 (SEQ ID NO:13) (antibody, V domains shown)
VH: QVQLVESGGGLIKPGGSLRLSCAASGFRFSAESMTWVRQAPGKGLEWVSAISSSGGSTYYADSVKGRFTISRDNSKNTVYLQMNSLRAEDTAVYYCVRSPKGCTHASCSWNSGSWGQGTLVTVSS
notes: Single domain antibody on a human VH scaffold, from a human VH library, expressed in E. coli; also called VR2-801-18
[15]
  binding result: no binding (tested: 150˜200 nM)
[16]
  Kd: 500 nM
  koff: 0.02 s⁻¹
  kon: 46000 M⁻¹ s⁻¹

B6: AB3 with linker 2 (SEQ ID NO:21) (antibody, V domains shown)
VH: QVQLVESGGGLIKPGGSLRLSCAASGDMLSYDVMSWVRQAPGKGLEWVSAISSSGGSTYYADSVKGRFTISRDNSKNTVYLQMNSLRAEDTAVYYCVAAPWRCTHDNCSKTRASWGQGTMVTVSS
notes: Single domain antibody on a human VH scaffold, expressed in E. coli; also called VR2-801-45
[15]
  binding result: no binding (tested: 150˜200 nM)
[16]
  Kd: 900 nM
  koff: 0.045 s⁻¹
  kon: 53000 M⁻¹ s⁻¹
